Non-standard residues stand in square brackets, D forms with d. No end group written: not given here.

The target in the assay is full length PCNA's binding partners. As to the kind of experiment: cell-based or functional assay.
RRRRRRRRRCCLGIPAQEY [R9-L130A] returned a % cancer cell death, U937 cells, 30 µM peptide, 24 h, flow cytometry of 45%. The same measure, in the same setting: to RRRRRRRRRCCAGIPEQEY [R9-L126A] belongs 8%. With RRRRRRRRRCCLGIPEAEY [R9-L131A], the % cancer cell death, U937 cells, 30 µM peptide, 24 h, flow cytometry worked out at 93%.

RRRRRRRRRCCLGAPEQEY [R9-L128A] had a % cancer cell death, U937 cells, 30 µM peptide, 24 h, flow cytometry of 21%. Still for that read-out and setting: to RRRRRRRRRCCLAIPEQEY [R9-L127A] belongs 47%; to RRRRRRRRRCCLGIPEQEA [R9-L133A], 7%; to RRRRRRRRRCCLGIPEQAY [R9-L132A], 88%. Consider RRRRRRRRRCCLGIAEQEY [R9-L129A], for which the % cancer cell death, U937 cells, 30 µM peptide, 24 h, flow cytometry worked out at 80%. As for [dR][dR][dR][dR][dR][dR][dR][dR][dR]CCLGIPEQEY (cysteine pairing not given here) [R9-caPep (D-nonaarginine linked caPeptide, …)], the % Dead Cells, MCF 7 (breast cancer) cells, 50 µM R9-caPeptide, 48 h, flow cytometry came to 91.5%; the % Dead Cells, MCF 10A (non-malignant) breast cells, 50 µM R9-caPeptide, 48 h, flow cytometry came out at 18.2%; the % cancer cell death, U937 cells, 30 µM peptide, 24 h, flow cytometry was 43%; the apoptotic cells, U937 cells, 50 uM R9-caPep is 93%.

Values taken from US20110076342A1.
